According to paper PMC11661448:

B1: TTC7B-FAM126A (1 to 308) mutant TTC7B:R539E [human] / EFR3A (721 to 791) [human] (parent)
chain 1: MATKKAGSRLETEIERCRSECQWERIPELVKQLSAKLIANDDMAELLLGESKLEQYLKEHPLRQGASPRGPKPQLTEVRKHLTAALDRGNLKSEFLQESNLIMAKLNYVEGDYKEALNIYARVGLDDLPLTAVPPYRLRVIAEAYATKGLCLEKLPISSSTSNLHVDREQDVITCYEKAGDIALLYLQEIERVILSNIQNRSPKPGPAPHDQELGFFLETGLQRAHVLYFKNGNLTRGVGRFRELLRAVETRTTQNLRMTIARQLAEILLRGMCEQSYWNPLEDPPCQSPLDDPLRKGANTKTYTLTRRARVYSGENIFCPQENTEEALLLLLISESMANRDAVLSRIPEHKSDRLISLQSASVVYDLLTIALGRRGQYEMLSECLERAMKFAFEEFHLWYQFALSLMAAGKSARAVKVLKECIRLKPDDATIPLLAAKLCMGSLHWLEEAEKFAKTVVDVGEKTSEFKAKGYLALGLTYSLQATDASLRGMQEVLQRKALLAFQRAHSLSPTDHQAAFYLALQLAISRQIPEALGYVRQALQLQGDDANSLHLLALLLSAQKHYHDALNIIDMALSEYPENFILLFSKVKLQSLCRGPDEALLTCKHMLQIWKSCYNLTNPSDSGRGSSLLDRTIADRRQLNTITLPDFSDPETGSVHATSVAASRVEQALSEVASSLQSSAPKQGPLHPWMTLAQIWLHAAEVYIGIGKPAEATACTQEAANLFPMSHNVLYMRGQIAELRGSMDEARRWYEEALAISPTHVKSMQRLALILHQLGRYSLAEKILRDAVQVNSTAHEVWNGLGEVLQAQGNDAAATECFLTALELEASSPAVPFTIIPRVL
chain 2: MFTSEKGVVEEWLSEFKTLPETSLPNYATNLKDKSSLVSSLYKVIQEPQSELLEPVCHQLFEFYRSGEEQLLQFTLQFLPELIWCYLAVSASRNVHSSGCIEALLLGVYNLEIVDKQGHTKVLSFTIPSLSKPSVYHEPSSIGSMALTESALSQHGLSKVVYSGPHPQREMLTAQNRFEVLTFLLLCYNAALTYMPSVSLQSLCQICSRICVCGYPRQHVRKYKGISSRIPVSSGFMVQMLTGIYFAFYNGEWDLAQKALDDIIYRAQLELYPEPLLVANAIKASLPHGPMKSNKEGTRCIQVEITPT
chain 3: SNTEEITFEALKKAIDTSGMEEQEKEKRRLVIEKFQKAPFEEIAAQCESKANLLHDRLAQILELTIRPPPS

Variants of: B1
Assay: BLI
Details: with EFR3A (721 to 791) [human]; His-EFR3A loaded on the anti-penta-His tip at 200 nM, TTC7B-FAM126A at 500 nM; 25°C; 20 mM HEPES (pH 7.5), 150 mM NaCl; read off a plot

Variant	response [nm]
chain 1 R539E	1.2
chain 1 W699A	1.4
chain 1 A702R	-0.07
chain 2 H58E	1.6
chain 2 F61A	0.37
chain 2 L106F	1.1
chain 2 A103R	0.08
chain 1 L610A	0.85

Same assay, conditions: with TTC7B-FAM126A (1 to 308) [human]; His-EFR3A loaded on the anti-penta-His tip at 200 nM, TTC7B-FAM126A at 500 nM; 25°C; 20 mM HEPES (pH 7.5), 150 mM NaCl; read off a plot

Variant	response [nm]
chain 3 L11A	0.01
chain 3 L11R	0.17
chain 3 I43A	0.45
chain 3 K12E	0.27
chain 3 I61A	1.5
chain 3 A14R	0.23
chain 3 K50E	0.82
chain 3 F8A	0.47
chain 3 R57E	1.3
chain 3 F35A	-0.02
chain 3 F40A	0.84
